The record followed here is patent EP4733322A1 (dated 2026).

In the assay the target is T1, KRAS G12V peptide on HLA-A*11 (human).
T1 peptide: VVGAVGVGK
The assay is described as follows: cytokine release.

B1: CR-KVA11-N03 (TCR, V domains shown)
Valpha: RKEVEQDPGPFNVPEGATVAFNCTYSNSASQSFFWYRQDCRKEPKLLMSVYSSGNEDGRFTAQLNRASQYISLLIRDSKLSDSATYLCVVPGGTGGGNKLTFGTGTQLKVEL
Vbeta: DTAVSQTPKYLVTQMGNDKSIKCEQNLGHDTMDWYKQDSKKFLKIMFSYNNKELIINETVPNRFSPKSPDKAHLNLHINSLELGDSAVYFCASSHWGAQETQYFGPGTRLLVL
In the case of B1, the binding result was “recognises”.
